Source: the supplement of paper PMC6757056
± gives the standard deviation of the averaged measurements.

B1: library; a variant is named by its letters at N, in order (parent)
chain: GCUGUCACCGAGAAACUGUGAAGUAUAUCUUAAACCUGGGCACUUAAAAGAUAUAUGGAGUUAGUAGUGCAACCUGCUCGGUCUGAUGAGUCCNNNNNNGGACGAAACAGC

Tests used:
cyclic di-GMP [1] = variants of: B1; assay: FACS-Seq fitted mean relative fluorescence mCherry/BFP without ligand (log10 relative fluorescence); HEK293T; ligand: cyclic di-GMP (c-di-GMP-II aptamer); higher = higher reporter protein expression; details: ligand present: no
Protocol: (§1)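 Hammerhead (sTRSV) ribozyme switch libraries with a ligand aptamer grafted on stem I and a randomized N4-6 loop II, cloned into the 3' UTR of mCherry and transiently transfected into HEK293T cells; RNA-Seq 72 h post transfection with ligand added 1 h before transfection; RNA read count / plasmid DNA read count normalized to the non-cleaving sTRSVctl (x100), log10; sequences with >100 DNA reads. FACS-Seq: lentiviral library sorted into 6 bins after 48 h ligand, log-normal fit mean of mCherry/BFP scaled to controls. Printed sequences are partial switch sequences.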

cyclic di-GMP [2] = variants of: B1; assay: normalized RNA/DNA level without ligand (relative to sTRSVctl = 100) (log10 (% of sTRSVctl)); HEK293T; ligand: cyclic di-GMP (c-di-GMP-II aptamer); higher = less ribozyme self-cleavage, higher mRNA level; details: reporter: mCherry (pCS4076), ligand present: no
Protocol: as §1

cyclic di-GMP [3] = variants of: B1; assay: FACS-Seq fitted mean relative fluorescence mCherry/BFP with ligand (log10 relative fluorescence); HEK293T; ligand: cyclic di-GMP (c-di-GMP-II aptamer); ligand concentration (+) FACS-Seq: 1 mM; higher = higher reporter protein expression; details: ligand present: yes
Protocol: as §1

cyclic di-GMP [4] = variants of: B1; assay: normalized RNA/DNA level with ligand (relative to sTRSVctl = 100) (log10 (% of sTRSVctl)); HEK293T; ligand: cyclic di-GMP (c-di-GMP-II aptamer); ligand concentration (+) RNA-Seq: 1 mM; higher = less ribozyme self-cleavage, higher mRNA level; details: reporter: mCherry (pCS4076), ligand present: yes
Protocol: as §1

Variant | FACS-Seq fitted mean (log10) (cyclic di-GMP [1]) | normalized RNA/DNA level without ligand (log10) (cyclic di-GMP [2]) | FACS-Seq fitted mean (log10) (cyclic di-GMP [3]) | normalized RNA/DNA level with ligand (log10) (cyclic di-GMP [4])
GUGAAA | -0.574 ± 0.012 | 1.41 ± 0.17 | -0.227 ± 0.085 | 1.62 ± 0.059
AACAUC | -0.233 ± 0.056 | 1.593 ± 0.012 | 0.0469 ± 0.033 | 1.75 ± 0.13
ACGAAA | -0.618 ± 0.032 | 1.35 ± 0.1 | -0.313 ± 0.013 | 1.52 ± 0.11
GCACAU | -0.28 ± 0.043 | 1.47 ± 0.055 | -0.00874 ± 0.0028 | 1.69 ± 0.11
AGGUAA | -0.299 ± 0.023 | 1.43 ± 0.034 | -0.0992 ± 0.054 | 1.56 ± 0.17
UAUUAC | -0.992 ± 0.17 | 1.77 ± 0.039 | -0.849 ± 0.071 | 1.87 ± 0.095
CCUGCC | -0.367 ± 0.12 | 1.79 ± 0.018 | -0.0275 ± 0.059 | 1.89 ± 0.052
CAAAUA | -0.296 ± 0.0065 | 1.28 ± 0.11 | -0.211 ± 0.2 | 1.46 ± 0.14
UAGACU | -0.164 ± 0.073 | 1.68 ± 0.051 | 0.141 ± 0.12 | 1.85 ± 0.13
CAGCUA | -0.432 ± 0.009 | 1.37 ± 0.077 | -0.148 ± 0.079 | 1.56 ± 0.076
UCGAAA | -0.535 ± 0.0031 | 1.32 ± 0.069 | -0.158 ± 0.043 | 1.58 ± 0.12
CCGUAU | -0.719 ± 0.038 | 1.5 ± 0.015 | -0.441 ± 0.007 | 1.69 ± 0.16
AAAUGC | -0.0259 ± 0.11 | 1.642 ± 0.01 | 0.294 ± 0.022 | 1.79 ± 0.09
AAACAU | -0.286 ± 0.077 | 1.6 ± 0.019 | -0.0737 ± 0.18 | 1.77 ± 0.11
ACGAGU | -0.508 ± 0.033 | 1.43 ± 0.14 | -0.229 ± 0.13 | 1.7 ± 0.11
AGACGA | -0.409 ± 0.019 | 1.54 ± 0.063 | -0.212 ± 0.013 | 1.73 ± 0.12
